# Test results reported in patent US20060257928.
# B1: SUV39H1(82-412)-GST protein (protein)
# chain: CVRILKQFHKDLERELLRRHHRSKTPRHLDPSLANYLVQKAKQRRALRRWEQELNAKRSHLGRITVENEVDLDGPPRAFVYINEYRVGEGITLNQVAVGCECQDCLWAPTGGCCPGASLHKFAYNDQGQVRLRAGLPIYECNSRCRCGYDCPNRVVQKGIRYDLCIFRTDDGRGWGVRTLEKIRKNSFVMEYVGEIITSEEAERRGQIYDRQGATYLFDLDYVEDVYTVDAAYYGNISHFVNHSCDPNLQVYNVFIDNLDERLPRIAFFATRTIRAGEELTFDYNMQVDPVDMESTRMDSNFGLAGLPGSPKKRVRIECKCGTESCRKYLF
# Molecular target: biotinylated H3 peptide (first 21 amino acids of Histone H3 with a Biotin label on the CO2H terminus, Upstate Biotechnology), P68431
protein,measurement,value
B1,"Histone methyl transferase activity (radioactive assay, 14C labelled methylated H3 peptide)",Histone methyl transferase activity of truncated protein was confirmed by radioactive assay
